From paper PMC10786891, “Massively parallel profiling of RNA-targeting CRISPR-Cas13d”
Changes are numbered by the printed parent chain. In names and notes the source's numbering stands.

T1: EsCas13d, nuclease-dead (Eubacterium siraeum, UniProt B0MS50, R295A;H300A;R849A;H854A)
T1 sequence: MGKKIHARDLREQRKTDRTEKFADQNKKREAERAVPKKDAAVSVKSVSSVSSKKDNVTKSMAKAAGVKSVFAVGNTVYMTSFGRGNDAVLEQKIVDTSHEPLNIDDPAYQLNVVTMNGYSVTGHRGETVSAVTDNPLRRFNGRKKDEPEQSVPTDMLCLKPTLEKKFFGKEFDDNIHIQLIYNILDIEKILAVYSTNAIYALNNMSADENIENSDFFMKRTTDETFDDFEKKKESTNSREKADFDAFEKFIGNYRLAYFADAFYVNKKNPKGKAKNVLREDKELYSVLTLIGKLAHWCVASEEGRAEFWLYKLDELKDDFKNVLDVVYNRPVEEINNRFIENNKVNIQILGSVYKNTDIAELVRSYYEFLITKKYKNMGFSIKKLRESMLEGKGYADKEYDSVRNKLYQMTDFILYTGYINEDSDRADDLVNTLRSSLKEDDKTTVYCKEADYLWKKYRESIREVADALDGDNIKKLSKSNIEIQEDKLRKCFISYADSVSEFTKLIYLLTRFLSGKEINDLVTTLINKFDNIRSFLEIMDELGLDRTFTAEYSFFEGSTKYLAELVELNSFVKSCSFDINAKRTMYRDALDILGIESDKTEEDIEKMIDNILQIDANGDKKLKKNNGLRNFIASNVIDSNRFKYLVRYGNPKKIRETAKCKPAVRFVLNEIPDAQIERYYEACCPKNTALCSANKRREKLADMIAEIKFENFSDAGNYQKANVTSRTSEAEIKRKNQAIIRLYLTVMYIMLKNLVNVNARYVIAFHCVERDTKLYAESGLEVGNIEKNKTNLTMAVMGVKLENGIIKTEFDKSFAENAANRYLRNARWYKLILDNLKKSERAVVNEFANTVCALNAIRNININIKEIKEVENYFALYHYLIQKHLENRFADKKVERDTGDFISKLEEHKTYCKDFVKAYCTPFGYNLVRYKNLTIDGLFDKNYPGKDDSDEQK

B1: target 2 MT 5'PFS AUA 3'PFS ACU (mixed)
RNA 1: CACCCGUGCAAAAUUGCAGGGGUCUAAAACCUUCUCCAAAUUGUUUCAUCCU
RNA 2: GGGAAUGGAUCCACAUCUACGAAUUCAUAAGGAUGAAACAAUUUGGAGAAGACUAGAUCGGAAGAGCACACGU
B2: target 2 MT 5'PFS GAG 3'PFS UGU (mixed)
RNA 1: B1 RNA 1
RNA 2: B1 RNA 2 with A27G, U28A, A29G, A52U, C53G
B3: target 2 MT 5'PFS UGU 3'PFS ACG (mixed)
RNA 1: B1 RNA 1
RNA 2: B1 RNA 2 with A27U, U28G, A29U, U54G
B4: target 2 MT 5'PFS GAA 3'PFS ACG (mixed)
RNA 1: B1 RNA 1
RNA 2: B1 RNA 2 with A27G, U28A, U54G
B5: target 2 MT 5'PFS GGC 3'PFS AUA (mixed)
RNA 1: B1 RNA 1
RNA 2: B1 RNA 2 with A27G, U28G, A29C, C53U, U54A
B6: target 2 MT 5'PFS UUU 3'PFS UUU (mixed)
RNA 1: B1 RNA 1
RNA 2: B1 RNA 2 with A27U, A29U, A52U, C53U
B7: target 2 MT 5'PFS CGC 3'PFS UGU (mixed)
RNA 1: B1 RNA 1
RNA 2: B1 RNA 2 with A27C, U28G, A29C, A52U, C53G
B8: target 2 MT 5'PFS CUA 3'PFS UUC (mixed)
RNA 1: B1 RNA 1
RNA 2: B1 RNA 2 with A27C, A52U, C53U, U54C
B9: target 2 MT 5'PFS AUA 3'PFS ACA (mixed)
RNA 1: B1 RNA 1
RNA 2: B1 RNA 2 with U54A
B10: target 2 MT 5'PFS GGC 3'PFS AUU (mixed)
RNA 1: B1 RNA 1
RNA 2: B1 RNA 2 with A27G, U28G, A29C, C53U
B11: target 2 MT 5'PFS GAA 3'PFS ACU (mixed)
RNA 1: B1 RNA 1
RNA 2: B1 RNA 2 with A27G, U28A
B12: target 2 MT 5'PFS UUU 3'PFS UUA (mixed)
RNA 1: B1 RNA 1
RNA 2: B1 RNA 2 with A27U, A29U, A52U, C53U, U54A
B13: target 2 MT 5'PFS GGG 3'PFS UGC (mixed)
RNA 1: B1 RNA 1
RNA 2: B1 RNA 2 with A27G, U28G, A29G, A52U, C53G, U54C
B14: target 2 MT 5'PFS GAG 3'PFS UGA (mixed)
RNA 1: B1 RNA 1
RNA 2: B1 RNA 2 with A27G, U28A, A29G, A52U, C53G, U54A
B15: target 2 MT 5'PFS UAC 3'PFS UCA (mixed)
RNA 1: B1 RNA 1
RNA 2: B1 RNA 2 with A27U, U28A, A29C, A52U, U54A
B16: target 2 MT 5'PFS CUA 3'PFS UUA (mixed)
RNA 1: B1 RNA 1
RNA 2: B1 RNA 2 with A27C, A52U, C53U, U54A
B17: target 2 MT 5'PFS CGC 3'PFS UAG (mixed)
RNA 1: B1 RNA 1
RNA 2: B1 RNA 2 with A27C, U28G, A29C, A52U, C53A, U54G
B18: target 2 MT 5'PFS UGC 3'PFS CAG (mixed)
RNA 1: B1 RNA 1
RNA 2: B1 RNA 2 with A27U, U28G, A29C, A52C, C53A, U54G
B19: target 2 MT 5'PFS AUA 3'PFS ACG (mixed)
RNA 1: B1 RNA 1
RNA 2: B1 RNA 2 with U54G
B20: target 2 MT 5'PFS UGU 3'PFS ACA (mixed)
RNA 1: B1 RNA 1
RNA 2: B1 RNA 2 with A27U, U28G, A29U, U54A
B21: target 2 MT 5'PFS GGC 3'PFS AUG (mixed)
RNA 1: B1 RNA 1
RNA 2: B1 RNA 2 with A27G, U28G, A29C, C53U, U54G
B22: target 2 MT 5'PFS UGC 3'PFS CAA (mixed)
RNA 1: B1 RNA 1
RNA 2: B1 RNA 2 with A27U, U28G, A29C, A52C, C53A, U54A
B23: target 2 MT 5'PFS GAG 3'PFS UGC (mixed)
RNA 1: B1 RNA 1
RNA 2: B1 RNA 2 with A27G, U28A, A29G, A52U, C53G, U54C
B24: target 2 MT 5'PFS UGC 3'PFS ACA (mixed)
RNA 1: B1 RNA 1
RNA 2: B1 RNA 2 with A27U, U28G, A29C, U54A
B25: target 2 MT 5'PFS UAU 3'PFS UAG (mixed)
RNA 1: B1 RNA 1
RNA 2: B1 RNA 2 with A27U, U28A, A29U, A52U, C53A, U54G
B26: target 2 MT 5'PFS UGC 3'PFS ACU (mixed)
RNA 1: B1 RNA 1
RNA 2: B1 RNA 2 with A27U, U28G, A29C
B27: target 2 MT 5'PFS GAA 3'PFS ACA (mixed)
RNA 1: B1 RNA 1
RNA 2: B1 RNA 2 with A27G, U28A, U54A
B28: target 2 MT 5'PFS AUA 3'PFS ACC (mixed)
RNA 1: B1 RNA 1
RNA 2: B1 RNA 2 with U54C
B29: target 2 MT 5'PFS CUA 3'PFS UUU (mixed)
RNA 1: B1 RNA 1
RNA 2: B1 RNA 2 with A27C, A52U, C53U
B30: target 2 MT 5'PFS UGG 3'PFS CUU (mixed)
RNA 1: B1 RNA 1
RNA 2: B1 RNA 2 with A27U, U28G, A29G, A52C, C53U
B31: target 2 MT 5'PFS GGC 3'PFS AUC (mixed)
RNA 1: B1 RNA 1
RNA 2: B1 RNA 2 with A27G, U28G, A29C, C53U, U54C
B32: target 2 MT 5'PFS UAC 3'PFS UCC (mixed)
RNA 1: B1 RNA 1
RNA 2: B1 RNA 2 with A27U, U28A, A29C, A52U, U54C
B33: target 2 MT 5'PFS UGU 3'PFS ACU (mixed)
RNA 1: B1 RNA 1
RNA 2: B1 RNA 2 with A27U, U28G, A29U
B34: target 2 MT 5'PFS GCC 3'PFS AUU (mixed)
RNA 1: B1 RNA 1
RNA 2: B1 RNA 2 with A27G, U28C, A29C, C53U
B35: target 1 U8C,G12A (mixed)
RNA 1: CACCCGUGCAAAAAUGCAGGGGUCUAAAACUGAGCGGAUAACCUCUCUAUGG
RNA 2: GGGAAUGGAUCCACAUCUACGAAUUCGUACCAUAGAGAGAUUACCCGCUCACCGAGAUCGGAAGAGCACACGU
B36: target 1 C7G,U11G (mixed)
RNA 1: B35 RNA 1
RNA 2: B35 RNA 2 with A40G, U41G, C44U, C45G
B37: target 1 insC 3' of 8,insC 3' of 3 (mixed)
RNA 1: B35 RNA 1
RNA 2: GGGAAUGGAUCCACAUCUACGAAUUCGUACCAUAGAGAGGUUAUCCCGCUCCACCGAGAUCGGAAGAGCACACGU
B38: target 1 G12A,A14U (mixed)
RNA 1: B35 RNA 1
RNA 2: B35 RNA 2 with A38U, C44U

Biological target: T1, EsCas13d, nuclease-dead
Assay: crRNA (strand 1, pre-loaded); Mg2+; 40 mM Tris-HCl pH 7.5, 150 mM NaCl, 6 mM MgCl2, 1 mM DTT, 0.1% Tween-20, 0.2 mg/ml BSA; 25 C; 10 min per concentration, then washed
Conditions: tags: His6-TwinStrep-SUMO cleaved; N-terminal SNAP kept (SNAP-Surface 488); label: 3' end held by stalled T7 RNA polymerase

B1 and B2 are within error of each other in Kd: 10.7 ± 1.4 nM for the first, 13.5 ± 1.7 nM for the second.

B3 and B4 are within 1.5-fold of each other in Kd: 15 ± 1.9 nM for the first, 11 ± 1.3 nM for the second.

Compared with B5, B6 is 1.9-fold higher in Kd: 10.8 ± 1 nM for the first, 20 ± 4 nM for the second.

First: B7
Second: B8
The Kd of the first is 1.8-fold higher: 5.6 ± 0.5 nM for the first, 3.1 ± 0.9 nM for the second. The second binds more tightly here.

First: B9
Second: B10
The Kd of the first is 1.8-fold lower: 6.9 ± 1.6 nM for the first, 12.4 ± 1.3 nM for the second. The first binds more tightly here.

B11 and B12 are within error of each other in Kd: 13.3 ± 2.6 nM for the first, 9.9 ± 1.3 nM for the second.

B13 and B14 are within 1.5-fold of each other in Kd: 12.8 ± 1.4 nM for the first, 9.5 ± 1.8 nM for the second.

Going from B15 to B16, the Kd falls from 6.3 ± 1 nM to 1.88 ± 0.26 nM (3.4-fold). The second binds more tightly here.

Going from B17 to B18, the Kd rises from 3.3 ± 0.5 nM to 16.2 ± 2.2 nM (4.9-fold).

B19 and B20 are within error of each other in Kd: 14 ± 5 nM for the first, 14.9 ± 3.5 nM for the second.

B21 and B22 are within error of each other in Kd: 15.2 ± 1.7 nM for the first, 13 ± 2.3 nM for the second.

Compared with B23, B24 is 2.4-fold higher in Kd: 7.1 ± 0.7 nM for the first, 17 ± 4 nM for the second.

B25 and B26 are within 1.5-fold of each other in Kd: 34 ± 7 nM for the first, roughly 49 nM for the second.

B27 and B28 are within error of each other in Kd: 12 ± 4 nM for the first, 10.7 ± 1.8 nM for the second.

Compared with B29, B30 is 2.7-fold higher in Kd: 2.61 ± 0.28 nM for the first, 7 ± 0.7 nM for the second.

B31 and B32 are within error of each other in Kd: 13.2 ± 1.1 nM for the first, 15.1 ± 2.8 nM for the second.

Going from B33 to B34, the Kd falls from 28 ± 12 nM to 10.7 ± 1.3 nM (2.6-fold). The second binds more tightly here.

Going from B35 to B36, the Kd rises from 12.5 ± 1 nM to 24.7 ± 1.5 nM (2-fold).

Going from B37 to B38, the Kd rises from 13.3 ± 0.7 nM to 26.3 ± 1.7 nM (2-fold).
